Results on one substance are retold here after patent publication US20060199247A1.

The experiment deals with beef heart phosphodiesterase (Boeringer Mannheim) (beef).

Regarding calmodulin, the phosphodiesterase activity is 6.5 fold.
